Data published in IntAct's records for PubMed 8599766.

B1: Insulin receptor substrate 1 (Homo sapiens), P35568 (parent)
chain: MASPPESDGFSDVRKVGYLRKPKSMHKRFFVLRAASEAGGPARLEYYENEKKWRHKSSAPKRSIPLESCFNINKRADSKNKHLVALYTRDEHFAIAADSEAEQDSWYQALLQLHNRAKGHHDGAAALGAGGGGGSCSGSSGLGEAGEDLSYGDVPPGPAFKEVWQVILKPKGLGQTKNLIGIYRLCLTSKTISFVKLNSEAAAVVLQLMNIRRCGHSENFFFIEVGRSAVTGPGEFWMQVDDSVVAQNMHETILEAMRAMSDEFRPRSKSQSSSNCSNPISVPLRRHHLNNPPPSQVGLTRRSRTESITATSPASMVGGKPGSFRVRASSDGEGTMSRPASVDGSPVSPSTNRTHAHRHRGSARLHPPLNHSRSIPMPASRCSPSATSPVSLSSSSTSGHGSTSDCLFPRRSSASVSGSPSDGGFISSDEYGSSPCDFRSSFRSVTPDSLGHTPPARGEEELSNYICMGGKGPSTLTAPNGHYILSRGGNGHRCTPGTGLGTSPALAGDEAASAADLDNRFRKRTHSAGTSPTITHQKTPSQSSVASIEEYTEMMPAYPPGGGSGGRLPGHRHSAFVPTRSYPEEGLEMHPLERRGGHHRPDSSTLHTDDGYMPMSPGVAPVPSGRKGSGDYMPMSPKSVSAPQQIINPIRRHPQRVDPNGYMMMSPSGGCSPDIGGGPSSSSSSSNAVPSGTSYGKLWTNGVGGHHSHVLPHPKPPVESSGGKLLPCTGDYMNMSPVGDSNTSSPSDCYYGPEDPQHKPVLSYYSLPRSFKHTQRPGEPEEGARHQHLRLSTSSGRLLYAATADDSSSSTSSDSLGGGYCGARLEPSLPHPHHQVLQPHLPRKVDTAAQTNSRLARPTRLSLGDPKASTLPRAREQQQQQQPLLHPPEPKSPGEYVNIEFGSDQSGYLSGPVAFHSSPSVRCPSQLQPAPREEETGTEEYMKMDLGPGRRAAWQESTGVEMGRLGPAPPGAASICRPTRAVPSSRGDYMTMQMSCPRQSYVDTSPAAPVSYADMRTGIAAEEVSLPRATMAAASSSSAASASPTGPQGAAELAAHSSLLGGPQGPGGMSAFTRVNLSPNRNQSAKVIRADPQGCRRRHSSETFSSTPSATRVGNTVPFGAGAAVGGGGGSSSSSEDVKRHSSASFENVWLRPGELGGAPKEPAKLCGAAGGLENGLNYIDLDLVKDFKQCPQECTPEPQPPPPPPPHQPLGSGESSSTRRSSEDLSAYASISFQKQPEDRQ

Variants of: B1
Details: with il4ra_human IL4R

| effect of a mutation on the interaction | Variant |
| --- | --- |
| decreasing interaction | R227Q |
| decreasing interaction | M257A |

The next lines start with the variant.

| Variant | effect of a mutation on the interaction |
| --- | --- |
| R212Q;R227Q | disrupting interaction |
| R212Q | decreasing interaction |
